Laboratory results: patent publication US20260158139A1, “CARD9 VARIANT POLYPEPTIDE AND ANTIBODIES DIRECTED THERETO” (The Broad Institute, Inc., priority 2023, published 2026)

T1: CARD9 R101C (endogenous knock-in variant, in CARD9 R101C mouse BMDCs) (Mus musculus, UniProt A2AIV8 1-536)
T1 construct: CRISPR knock-in mouse; The protein stood in lysates of HKCA-stimulated BMDCs
T1 sequence: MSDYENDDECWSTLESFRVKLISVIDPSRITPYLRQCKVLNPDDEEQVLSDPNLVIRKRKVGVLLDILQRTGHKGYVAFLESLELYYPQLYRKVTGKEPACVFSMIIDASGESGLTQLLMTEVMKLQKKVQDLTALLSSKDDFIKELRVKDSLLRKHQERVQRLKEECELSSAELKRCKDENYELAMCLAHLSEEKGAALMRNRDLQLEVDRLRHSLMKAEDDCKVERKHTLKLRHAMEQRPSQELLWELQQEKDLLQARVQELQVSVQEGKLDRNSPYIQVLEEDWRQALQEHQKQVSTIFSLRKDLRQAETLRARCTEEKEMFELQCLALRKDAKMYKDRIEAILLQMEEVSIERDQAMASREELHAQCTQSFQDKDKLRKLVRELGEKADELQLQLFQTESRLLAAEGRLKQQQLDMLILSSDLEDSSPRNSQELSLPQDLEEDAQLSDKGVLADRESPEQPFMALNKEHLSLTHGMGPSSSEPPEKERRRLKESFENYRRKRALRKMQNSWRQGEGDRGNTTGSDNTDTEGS

T2: CARD9 (endogenous, in WT mouse BMDCs) (Mus musculus, UniProt A2AIV8 1-536)
T2 construct: Endogenous protein in lysates of HKCA-stimulated WT mouse BMDCs; also called WT CARD9
T2 sequence: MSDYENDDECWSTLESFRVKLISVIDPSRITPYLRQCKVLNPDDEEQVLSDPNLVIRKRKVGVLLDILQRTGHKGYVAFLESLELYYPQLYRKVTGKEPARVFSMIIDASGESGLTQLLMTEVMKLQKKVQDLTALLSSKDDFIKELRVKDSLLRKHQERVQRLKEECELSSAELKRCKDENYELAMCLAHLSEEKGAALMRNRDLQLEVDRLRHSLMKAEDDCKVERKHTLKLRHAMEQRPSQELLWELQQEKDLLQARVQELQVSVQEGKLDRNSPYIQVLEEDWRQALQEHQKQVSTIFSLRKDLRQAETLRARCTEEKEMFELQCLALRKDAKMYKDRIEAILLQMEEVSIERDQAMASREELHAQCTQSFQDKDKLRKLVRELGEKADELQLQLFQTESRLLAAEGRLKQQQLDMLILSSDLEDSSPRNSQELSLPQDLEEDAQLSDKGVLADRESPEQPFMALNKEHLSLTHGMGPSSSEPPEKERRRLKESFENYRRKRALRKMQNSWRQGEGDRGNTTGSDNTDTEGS


Columns and labels:
[1] = tested on: phosphorylated S104 (pS104) of CARD9, peptides pS104, pS104/R101C, S104; assay: ELISA of hybridoma clones against CARD9 peptides (antibody specificity); type: binding; conditions: pS104 in the context of either R101 or C101
Source text: FIGS. 9A-9J provide schematics, pictures, a table, graphs showing that CARD9 activation through S104 phosphorylation is impaired by the R101C variant implicated in fungal disease. FIG. 9A, schematic representation of CRISPR KI into CARD9 allele to obtain endogenous CARD9 R101C mutation. Figure discloses SEQ ID NOS 69-71, respectively, in order of appearance. FIG. 9B, representative sequencing result highlighting the presence of mutated base pair (arrow). Figure discloses SEQ ID NOS 72-74, respectively, in order of appearance. FIG. 9C, WB from BMDCs isolated from WT or CARD9 R101C mutant mice. FIG. 9D, WB from splenic CD11c positive cells isolated from WT or CARD9 R101C mutant mice. FIG. 9E, table summarizing hybridoma screening results for binding affinity of different phospho-S104 specific antibodies. ELISA results are shown as values of absorbance at 490 nm, representing antibody reactivity towards either pS104, or pS104/R101C, or S104 peptides. Antibody used in the study is row 6 (i.e., 4F9.H5). FIG. 9F, IL-6 concentration in supernatants from BMDCs from WT, CARD9−/− or CARD9R101C mutant treated with indicated concentrations of WGP, HKCA, HKTR or LPS (10 ng/ml) for 24h. (n=3 mice per condition). […]

[2] = biological target: T1, CARD9 R101C (endogenous knock-in …); assay: Bcl10 immunoprecipitation from HKCA-stimulated BMDCs, western blot
Experimental: (§1) Lysate was incubated for 30 min and centrifuged at 2000 rpm for 10 min at 4° C. 50 μl of the supernatant was collected as whole cell lysate (WCL) fraction. Remaining supernatant was collected and incubated overnight with 10 al/sample of CARD9 antibody (Cell Signaling Technology #12283S) at 4° C. while rotating. The next day, 50 μl of Dynabeads Protein G beads (Life Technologies #10004D) were added and incubated for 1 h rotating at 4° C. Immunoprecipitates were washed 3× with standard lysis buffer and resuspended in 25 μl of 2× Laemmli buffer (BioRad #1610737) supplemented with 5% R-mercaptoethanol followed by boiling for 10 min at 75° C. For Bcl10 IP to detect CBM complex formation, cell pellets were resuspended in lysis buffer (PBS, 0.5% NP-40) supplemented with 1× Halt Protease & Phosphatase Inhibitor Single-Use Cocktail and Pierce Universal Nuclease and kept on ice for 10 min. Lysate was centrifuged for 10 min at 2000 rpm at 4° C. 50 μl of the supernatant was collected as whole cell lysate (WCL) fraction. Remaining supernatant was incubated overnight with 200 al/sample of Bcl10 antibody (Santa Cruz Biotechnology #sc-5273) at 4° C. rotating. The next day, 50 μl of Dynabeads Protein G beads were added and incubated for 1 h rotating at 4° C. […]

[3] = biological target: T2, CARD9 (endogenous, in WT mouse BMDCs); assay: Bcl10 immunoprecipitation from HKCA-stimulated BMDCs, western blot for CARD9
Experimental: as §1

| binding result [2] | binding result [3] | Molecule | recognition of S104 phosphorylation (antibody specificity by ELISA against different peptides) [1] |
| --- | --- | --- | --- |
|  |  | phospho-specific CARD9 S104 antibody: mouse monoclonal IgG1 antibody to phosphorylated S104 of CARD9; clone 4F9.H5 used in the study; VH/VL in Table 1 (antibody, V domains shown) VH: EVQLQQSGPELVKPGASMKMSCKASGYSFTGQTMHWVKQTHGKNLEWIGLINPYNGGTKYNQIFTGKATLTVDKSSSSAYMELLSLTSEDSAVYFCAIWDYVLDYWGQGTSVTVSSAKTTPPSVYPLAPGSAAQTNSMVTLGCLVK VL: DVVMTQTPLSLPVSLGDQASISCRSSQSLLHSNGKTYLHWYLQKPGQSPKLLIYKVSNRFSGVPDRFSGSGSGTDFTLKISRVEAEDLGVYFCSQSTHIPPTFGGGTKLEIKRADAAPTVSIFPPSSEQLTSGGASVVCF | recognizes S104 phosphorylation independently of R101 |
| no binding | binds | Bcl10 (endogenous, in mouse BMDCs) (other, UniProt Q9Z0H7 1-233, looked up) MEAPAPSLTEEDLTEVKKDALENLRVYLCEKIIAERHFDHLRAKKILSREDTEEISCRTSSRKRAGKLLDYLQENPRGLDTLVESIRREKTQSFLIQKITDEVLKLRNIKLEHLKGLKCSSCEPFAAGATNNLSRCNSDESNLSEKQRASTVMYHPEGESSTAPFFSMASSLNLPVLEVGRTENSSFSSATLPRPGDPGAPPLPPDLRLEEGGSCGNSSEMFLPLRSRALSRQ |  |
